Reference: publication PMC11043367

B1: human MYADM (myeloid-associated differentiation marker), HA-tagged, Q96S97 D276E; V277H; S278N (protein)
chain: MPVTVTRTTITTTTTSSSGLGSPMIVGSPRALTQPLGLLRLLQLVSTCVAFSLVASVGAWTGSMGNWSMFTWCFCFSVTLIILIVELCGLQARFPLSWRNFPITFACYAALFCLSASIIYPTTYVQFLSHGRSRDHAIAATFFSCIACVAYATEVAWTRARPGEITGYMATVPGLLKVLETFVACIIFAFISDPNLYQHQPALEWCVAVYAICFILAAIAILLNLGECTNVLPIPFPSFLSGLALLSVLLYATALVLWPLYQFDEKYGGQPRRSREHNCSRSHAYYVCAWDRRLAVAILTAINLLAYVADLVHSAHLVFVKV

How the values were obtained:
[1] = target: human parechovirus 1 (PeV-A1) particles, Harris strain; assay: co-immunoprecipitation with anti-HA beads, RT-qPCR of viral RNA; conditions: IP, read off a plot
[2] = target: T1, Flag-tagged PeV-A1 virus particles; assay: pH-dependent virus particle binding assay (anti-HA immunoprecipitation), RT-qPCR of viral RNA; conditions: chain shown with the change, read off a plot
T1 chain 1: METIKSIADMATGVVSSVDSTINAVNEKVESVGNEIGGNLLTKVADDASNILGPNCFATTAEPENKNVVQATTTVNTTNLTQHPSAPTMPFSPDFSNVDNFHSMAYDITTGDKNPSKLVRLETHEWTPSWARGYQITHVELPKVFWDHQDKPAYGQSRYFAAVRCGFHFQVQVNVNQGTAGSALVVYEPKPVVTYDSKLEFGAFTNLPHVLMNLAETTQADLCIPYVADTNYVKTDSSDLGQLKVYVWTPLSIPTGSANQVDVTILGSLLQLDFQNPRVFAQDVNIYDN
T1 chain 2: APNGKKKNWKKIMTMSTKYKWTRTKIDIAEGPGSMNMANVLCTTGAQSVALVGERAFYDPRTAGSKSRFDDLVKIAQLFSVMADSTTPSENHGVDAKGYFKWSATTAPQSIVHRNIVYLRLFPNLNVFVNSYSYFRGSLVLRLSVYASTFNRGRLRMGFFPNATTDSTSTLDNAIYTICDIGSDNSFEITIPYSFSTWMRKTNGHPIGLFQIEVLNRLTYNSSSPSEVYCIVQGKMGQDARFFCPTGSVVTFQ
T1 chain 3: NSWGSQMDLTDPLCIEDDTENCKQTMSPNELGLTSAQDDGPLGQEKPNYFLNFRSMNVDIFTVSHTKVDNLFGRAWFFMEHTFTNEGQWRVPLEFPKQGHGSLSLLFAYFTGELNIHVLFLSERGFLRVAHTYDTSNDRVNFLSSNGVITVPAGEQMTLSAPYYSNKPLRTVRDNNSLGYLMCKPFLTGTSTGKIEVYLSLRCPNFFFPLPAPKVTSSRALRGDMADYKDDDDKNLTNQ

Molecule	response (relative to Vero) ([1]; 0 min after infection, parent: est. 25)	response (relative to Vero) ([1]; 15 min after infection, 37 °C, parent: est. 52)	response (relative to Vero) ([1]; 30 min after infection, 37 °C, parent: est. 60)	response (relative to Vero) ([2]; virus particle IP buffer pH 5.5, parent: est. 3.0)	response (relative to Vero) ([2]; virus particle IP buffer pH 6.0, parent: est. 6.2)	response (relative to Vero) ([2]; virus particle IP buffer pH 6.5, parent: est. 5.3)	response (relative to Vero) ([2]; virus particle IP buffer pH 7.4, parent: est. 1.1)
human MYADM (myeloid-associated differentiation marker), HA-tagged (from UniProt Q96S97) D276E; V277H; S278N	5	1.5	5	–	–	–	–
B1	–	–	–	1	1	1	1.1
